# Experiment: soluble on expression in E. coli; label from the status in PepcDB or PDB records
row,Sequence,soluble on expression in E. coli
1,MLKSGRLNFLKLNINSRLLYSTNPQLTKKVIGIDLGTTNSAVAYIRDSNDKKSATIIENDEGQRTTPSIVAFDVKSSPQNKDQMKTLVGMAAKRQNAINSENTFFATKRLIGRAFNDKEVQRDMAVMPYKIVKCESNGQAYLSTSNGLIQSPSQIASILLKYLKQTSEEYLGEKVNLAVITVPAYFNDSQRQATKDAGKLAGLNVLRVINEPTAAALSFGIDDKRNNGLIAVYDLGGGTFDISILDIEDGVFEVRATNGDTHLGGEDFDNVIVNYIIDTFIHENPEITREEITKNRETMQRLKDVSERAKIDLSHVKKTFIELPFVYKSKHLRVPMTEEELDNMTLSLINRTIPPVKQALKDADIEPEDIDEVILVGGMTRMPKIRSVVKDLFGKSPNSSVNPDETVALGAAIQGGILSGEIKNVLLLDVTPLTLGIETFGGAFSPLIPRNTTVPVKKTEIFSTGVDGQAGVDIKVFQGERGLVRNNKLIGDLKLTGITPLPKGIPQIYVTFDIDADGIINVSAAEKSSGKQQSITVIPNSGLSEEEIAKLIEEANANRAQDNLIRQRLELISKADIMISDTENLFKRYEKLISSEKEYSNIVEDIKALRQAIKNFKANENDMSIDVNGIKKATDALQGRALKLFQSATKNQQNQGK,not soluble
2,MVMEYLVLEKRLKRLREVLEKRQKDLIVFADNVKNEHNFSAIVRTCDAVGVLYLYYYHAEGKKAKINEGITQGSHKWVFIEKVDNPVQKLLEFKNRGFQIVATWLSKESVNFREVDYTKPTVLVVGNELQGVSPEIVEIADKKIVIPMYGMAQSLNVSVATGIILYEAQRQREEKGMYSRPSLSEEEIQKILKKWAYEDVIKERKRTLSTS,soluble
3,MDTALYLLPVTLGDTPIESVLPSYNKEIIQGIKHFIVEDVRSARRFLKKVDREIDIDSLTFYPLNKHTSPEDISGYLKPLAGGLSMGVISEAGCPAVADPGADVVAIAQRKNLKVVPLVGPSSIILSVMGSGFSGQSFAFHGYLPIEPGERAKKIKALEQRVYAEHQTQLFIETPYRNNKMVEDILHNCRPQTRLCIAANITCEGEYIRTKTIKEWQGKVPDLTKIPCIFLLYQLEHHHHHH,not soluble
4,MHHHHHHSSGVDLGTENLYFQSMEEHDSPTEASQPIVEEEETKTFKDLGVTDVLCEACDQLGWTKPTKIQIEAIPLALQGRDIIGLAETGSGKTGAFALPILNALLETPQRLFALVLTPTRELAFQISEQFEALGSSIGVQSAVIVGGIDSMSQSLALAKKPHIIIATPGRLIDHLENTKGFNLRALKYLVMDEADRILNMDFETEVDKILKVIPRDRKTFLFSATMTKKVQKLQRAALKNPVKCAVSS,soluble
5,MGSDKIHHHHHHMTPTVMVVDESRITFLAVKNALEKDGFNVIWAKNEQEAFTFLRREKIDLVFVDVFEGEESLNLIRRIREEFPDTKVAVLSAYVDKDLIINSVKAGAVDYILKPFRLDYLLERVKKIISSTPRVTVSLRKNIEDLEITLKFEDIVRKEIKRSNRTGSRFCVMYVKFEDIMRDYETIKKFFRETDYVLPISASEYLFVLTLTGKHGIEAVTRRMKEKLSERFSYTYVCYPDDGKTYEEIILTLKDRMAKPRGNES,not soluble
6,MATVSRLRPYATTVFAEMSALATRIGAVNLGQGFPDEDGPPKMLQAAQDAIAGGVNQYPPGPGSAPLRRAIAAQRRRHFGVDYDPETEVLVTVGATEAIAAAVLGLVEPGSEVLLIEPFYDSYSPVVAMAGAHRVTVPLVPDGRGFALDADALRRAVTPRTRALIINSPHNPTGAVLSATELAAIAEIAVAANLVVITDEVYEHLVFDHARHLPLAGFDGMAERTITISSAAKMFNCTGWKIGWACGPAELIAGVRAAKQYLSYVGGAPFQPAVALALDTEDAWVAALRNSLRARRDRLAAGLTEIGFAVHDSYGTYFLCADPRPLGYDDSTEFCAALPEKVGVAAIPMSAFCDPAAGQASQQADVWNHLVRFTFCKRDDTLDEAIRRLSVLAERPATGVPRGLEHHHHHH,soluble
7,MSLNLSFAAIDFETATGYMESACAVGIVTVTDGEITDEYYSLIQPPENEYWRANMLVHGITPGMTESLPGFHAIYPEVKKRLQGNVVVAHNEQFDRNVLKNTMRMYGLDYDELSLPERWECTCRIYRSLGYKPVNLSACCEREGIELKHHEALSDARGCAKLYLNFLEKYRPLSTEGHHHHHH,soluble
8,MMAYKSLLTVLTDPKIAPATLAQLVALAEAQDAHAEALCLGVDRSQTGYYYAGANALILQETLNRANAEAEEVLTLAQDTLGKSGVRWSAESGVAQIADLGRHVAHRARFSDLVVLSRPYGEDRGSEAEPIVEAAMFEGHAPVLVVPDNAPPLKQPRTVLLGWNESVEAMRAIRLAMPFLRAADLVRIVVIDPPRHGPDRSDPGGLLSQMLARHGVKVEIDVLSKTMTRVSDILNRHATDTSADMLVMGAYGHSRFREAILGGATRNMLEQATVPVFMAH,not soluble
9,MNMPLISIIMPVYNAECYLNQGILSCLNQSYQNIELILIDDGSTDKSIEIINNIIDKDKRVKLFFTPTNQGPAAARNIGLEKAQGDYITFLDSDDFIANDKLEKQLNFMLQNHLVMTHGNYAFCDLEGNQIKLVTTSKKIDYLTLLQGNQFKIMTVLVERESIKLLRFPNIKHEDYAFFLDCLKEVKQSILYSHQASSFVRIGKVSVSSNKFKSAIWTFNIYFKREKLGVVKSIYYFILYAYNGFIKYKK,not soluble
10,MGSDKIHHHHHHMSQTMMLIEKSSHCVSWYDTETGALQGRLALPDFPHEFVVDQDNHYAYVGHYGVQNSGVEGTDGRSVIVIDIRKQEIVHRYDLGEHARPHGISLDAQGRLYVLSEWSGHLLVKENPRAFDQGWDHVTPVGGEKPHLFALTGDGRTAYSMNLNSGDVTVLDPYDPTRIPVSIKTGEKPEGRCLREEAGVLYTSQRISNTVAVVDTKTLQVQRIFPTPQDPCRVYYDAKRNRLVTMNHHGGSFSVFDEATGEMLHEQKTPANPLALCIDDEAAYAYIAIDCEQVQRFNLDTFEVVQTFDTGKEPDVMVILPEGYSKHWEVNA,not soluble
11,MKKMHVESEFAPLRSVVLAQSQFCLPDKFDEADTTFLTEENARLTQNNEGRDLADFAPEQQVRWEKEKEVMQGVLESYGVEVFRPRLLTTYEKEHGKELGVGYSNFFSRDPFFTIGNLLIEGNLRFQHRRQEILPIRPIIQQWTQEAEGYYFAAPQPDISEGALSEAGPFIEGGDVLVLGKTIFVGYSGLASNLAGIQWLANMIGHFGYEVVPVRLHPHILHLDCALSLLREGLMIVCEEAFLDGLPAQLANWEKIHVTLQEAAYLVTNGLPLNEETYITDQSFTTLIPQIEAKGIKVEAIDYHVSRMLGGSFRCTTQALIRE,not soluble
12,MNTPHPSAPVLVAVANPTIHPEALHIVAATGRECIDTTDPREISRHAHRVAAMLVDATTAPHMASLPPNTRVMYLEPEPGPIDYEKAMKSGAELAVIVPAQSPELLKALGRRDVAPRAGKYPVIAVIGAAGGAGTSTLCAALAADYREALLIDTEHFSGGIDLLLGKEDDPGIRWDDVPDSGEKVPASELLASLPCVDPNVRILAATRDSVTHVAEQQLRGVVESVRGTCPIIIDVQRHHVLFESCVDLADLVVLLVPAEIRSVAAAAQLVPWLRRRKVDVVGVLRERAWASVDREEVARVTGADIVATVPTVKGLPREVELGGMATIPRALRRPLAQLRSHIDG,not soluble
13,MGSDKIHHHHHHMLVQGFEEDLAFLGWIALTLGSNPLVPYVPTRPELIPKILELLDLKEDDVFYDLGCGDGRVVIEAVKKTRVKKAVCVETRDDLVKEARKKAEEEGVSDRIEFINNDFFKTPLKDATAVYMYLLTSVNESLKPKLARELRDGTRIVTLDFPIPGWKPVKVETATTGWQRSLYLYVKGVSDRA,not soluble
14,MDNNVEDKKEAMLKRLANRHEKRLLDQVKSNTKKIDLRATERAFLESSPTSMNMRTPLNPSISSSVSDSPILSYDEKANKQIIALATWCNTMMELDVSEEMDLGESKAEACRNIQKMLKKRSDTSEVENTQENARRRYQRIFEKNDPEVVKKKCKQLLDDSGMDASIKDLLSKNNVAIRKEHAVYNDIGLQTTLLHTFLSFHPAWLKTALEAIFNTRIDAQPKHLMKKLSQFFLDLVFSNPTMLKNKKFAQGSGKPIITEAGKEALHKHFLSVSMKLMFLIETAHTHRVIPNLTRIFTKSSHFNCLDDVFSELTKELLTGSSATFKKAFAKVGFIPTYRQSFIENYDYQAKGFSDFSDGLILAKLLETVGEMPHGQILLKLRDPAGDRIRKIGNVKIVLQEMSSLGVPTDNVNAESIVGGKKDEILSILWAIIGVRVAKEQRIKVTRVSEERTPKKRRSAVHDDMSSEVLKMCKIYGRQMEIEVMDLDSLSDGCLLAKLWTTFGTNSTPIQDYDGLSLWEKVVSVAELELCIQRGLDQNMALFVKMFLERLGMIQDLNEKATKIQRMWKAYVQRKNTPKLYFIVQQLLADSSIPRNRSVSPFSNNVTFTVPRTPRNNILTERPSLSQIPSSRQSMDSTFNDATFTVSRDSIESMNKMQKTPLRGTFTRKTIAMVIEEEDDSENNETVVPSTLKKRTVVRMEHNAEVFREQDEDDENQDKDTVAPSAENLDSPPSDIPLETLSSIPSASQSAIFLQDSETGKEMHVPKAEDVGVVVLEASDSPVALEGNNEASYDGQKIENLETFEIKEGKTQEDLPSKSPMDPTQTSGSPLVEFRMTEEQERLEMLFQSLSEDQKNFVKTNNLSVSIEDDANTPELRRILRQTRELKRKQQEIARKLGNIERNALAVRDGGEDSSDSRSDAGHDVAILHGDDSQLFENSMQLDQKSQLQNDETQILENKKKAAVVIQKMIRGFIARRKFQMEISNIRNRMIQYNHILAQEDEQIGIEEMEDKSVEAKLKKCALHGLTNDNLHVVHVAATVIDRVTDLVPSLLEKLVVELNGIKSITDVLIVADRGFSYTSILHPLLNVLEKLFTKIPEEVTNSHILPHLKILSPRLMLLMLKHSEVKELFIPIINTLTSIARRFPDKKQSSFSSSSYSIKQSLKKVKDQECRNKLVRLESICEDML,not soluble
15,QIVPLFFQDVTNQPIEGMKPRSALEVEGRDVFIANGCVGCHSQMIRPLRAETERYGHYSVAGESVWDHPFLWGSKRTGPDLARIGGRYSDEWHRVHLNNPRDLVPASIMPAYPFLAGKHIDSTQTAKKLQVLRTLGTPYSDADITGAAAAVQGKTEMDALVAYLQGLGTLIKSKR,not soluble
16,MSLSWRNRIQIFLAPDRVDLTGIARGIRPVQQFRQSGVCVQENDSRQQWKAPLRLLEQMIGQMDDRFRRGSELHITLSNHFVRYGVIAPQPSLANPDELMAYAGFQMREIYGERIDDWELSLSTWDPYGGALCAAIARDLQSELIMFARQYDTRFACIEPYLAAALDHWSKRLVEKQVWFVLVETGRFCLVVLSEGAWRCARNQRVVENLQEELLAALEQESIILSPDRSVERVYVFAPELTGQLPVHDLRWQFVRLPDEKHPAPSYFPGVTGMDDSQNH,not soluble
17,MEINIFNTNKKYDVIYADPPWRYNDRKCNGACEHHYDTMTLEEIKKLPIKELCEKDCVLFLWTTYPMLKEALEVMEAWGFKYKSIAFQWIKLNRSGNGKFFGLGRWTRGNTEPCLLAVKGKPSRKSNSVSQLIEYPLGKHSAKPPITRDKIKELMGEECKCLELFARNNIEGWDCWGNEVGKMDEVILEHHHHHH,soluble
18,MTEHRPAIELEEIPTLLERIEGYKGRSRLTQLAIKLNLLIFIRSSELRFARWSEIDFKSGLWVIPEQREAIKGIKHSDRGAKMRRKHYVPLCEQALVILGELKDLTYDVNGDDGFILTGCYDAMKPMSENTINKALRKMGYDTKTDLCGHGFRTLACSALIESGIWPEDVVELQMSHMEKNNVRAAYTHKAKHLEQRRLMLQWWADFLDANGSGMVRPFEFAQGATQYLEHHHHHH,not soluble
